These results are taken from PMC2583301.

The labels stand for the following.
B1: yNap1(1-365) (domain or fragment)
chain: MSDPIRTKPKSSMQIDNAPTPHNTPASVLNPSYLKNGNPVRAQAQEQDDKIGTINEEDILANQPLLLQSIQDRLGSLVGQDSGYVGGLPKNVKEKLLSLKTLQSELFEVEKEFQVEMFELENKFLQKYKPIWEQRSRIISGQEQPKPEQIAKGQEIVESLNETELLVDEEEKAQNDSEEEQVKGIPSFWLTALENLPIVCDTITDRDAEVLEYLQDIGLEYLTDGRPGFKLLFRFDSSANPFFTNDILCKTYFYQKELGYSGDFIYDHAEGCEISWKDNAHNVTVDLEMRKQRNKTTKQVRTIEKITPIESFFNFFDPPKIQNEDQDEELEEDLEERLALDYSIGEQLKDKLIPRAVDWFTGAAL
B2: yNap1(74-365) (domain or fragment)
chain: LGSLVGQDSGYVGGLPKNVKEKLLSLKTLQSELFEVEKEFQVEMFELENKFLQKYKPIWEQRSRIISGQEQPKPEQIAKGQEIVESLNETELLVDEEEKAQNDSEEEQVKGIPSFWLTALENLPIVCDTITDRDAEVLEYLQDIGLEYLTDGRPGFKLLFRFDSSANPFFTNDILCKTYFYQKELGYSGDFIYDHAEGCEISWKDNAHNVTVDLEMRKQRNKTTKQVRTIEKITPIESFFNFFDPPKIQNEDQDEELEEDLEERLALDYSIGEQLKDKLIPRAVDWFTGAAL
B3: yNap1(74-417) (domain or fragment)
chain: LGSLVGQDSGYVGGLPKNVKEKLLSLKTLQSELFEVEKEFQVEMFELENKFLQKYKPIWEQRSRIISGQEQPKPEQIAKGQEIVESLNETELLVDEEEKAQNDSEEEQVKGIPSFWLTALENLPIVCDTITDRDAEVLEYLQDIGLEYLTDGRPGFKLLFRFDSSANPFFTNDILCKTYFYQKELGYSGDFIYDHAEGCEISWKDNAHNVTVDLEMRKQRNKTTKQVRTIEKITPIESFFNFFDPPKIQNEDQDEELEEDLEERLALDYSIGEQLKDKLIPRAVDWFTGAALEFEFEEDEEEADEDEDEEEDDDHGLEDDDGESAEEQDDFAGRPEQAPECKQS

This test has as its target H2A/H2B(T112C) dimer, H2B labelled with Alexa dye (Xenopus laevis) (UniProt P06897). Briefly: other fluorescence titration.
In the case of B1, the Kd is 2.1 nM and the Kd app (yNap1 counted as dimer) came to 1 nM.
Regarding B2, the Kd is 10 nM and the Kd app (yNap1 counted as dimer) amounted to 5.4 nM.
The corresponding values for B3 are 1.7 nM and 0.9 nM.

In general, Kd refers to the constant that tells how readily two partners part at equilibrium. High values mean a looser complex, low ones a tighter complex.
